# B1: CaFLS (Camellia sinensis) (protein)
# chain: MEVERVQALSHVTLHELPAKFIRPAHEQPENSKAIEGVTVPVISLSRPHDVVVDALSKACSEWGFFLITDHGVEPSLIGRLKEVGEEFFKLPQKEKESYANDPSSGSFEGYGTKMTKNFDEKVEWIDYYFHVMHPPKKLNLDMWPKNPSSYRGVTEEYNVEILRTTNKLLELLSEGLGLDGKVLNSSLGGDEIEFEMKINMYPPCPQPELALGVEPHTDMSALTLLIPNDVPGLQVWKDGNWVAVNYLPNALFVHVGDQLEVLSNGKYKSVLHRSLVNKERTRMSWAVFVVPPHEAVIGPLPELIDEKNPAKYSTKTYAEYRYRKFNKIPQ
# notes: synthetic gene in pET-28a(+) (NcoI/XhoI), expressed in E. coli BL21(DE3); 331 residues; mutants carry fragments of AnFNS I
# Substrate: COc1ccc([C@@H]2CC(=O)c3c(O)cc(O)cc3O2)cc1O
# Assay: UPLC-MS product formation, Lineweaver-Burk
# Format: biochemical, Camellia sinensis
# Settings: 4'-O-methyl taxifolin formation (main product), Tris-HCl pH 7.5, 23 °C, 1 h, 5 mM 2-mercaptoethanol, 1 mM NADPH, 'separated protein', purification not described
# Text: UPLC-MS product formation, Lineweaver-Burk on CaFLS
protein,measurement,value
B1,Km,55.47 µM
same,Vmax,0.0558 µmol/min/mg
same,kcat,0.0349 s⁻¹
same,kcat/Km,629 M⁻¹ s⁻¹

# From PMC9213739, “Substrates and Loaded Iron Ions Relative Position Influence the Catalytic Characteristics of the Metalloenzymes Angelica archangelica Flavone Synthase I and Camellia sinensis Flavonol Synthase” (Frontiers in Pharmacology, 2022)
